From the supplement of paper PMC10567573 come the findings set out here.

The chains are these.
B1: LOXL2 (parent)
chain: HISSCKLGPQVSLDPMKNVTCENG
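Note: lentivirally expressed fusions sorted by FACS into six bins by GFP to DsRed ratio, PSI derived from sequencing read proportions per bin multiplied by bin number.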

In this data set the parent is B1. Kind of data set: protein stability index of a GFP-peptide fusion (GPS, HEK-293T) (PSI 1-6); higher = more stable. The settings on record: c terminus: a fixed tail appended.
In the case of HISSCKLGPQVSDDPMKNVTCENG [L13D], the protein stability index was found to be 4.34.
In the case of HISSCKLGPQVSSDPMKNVTCENG [L13S], the protein stability index is 4.45.
With HISSCKLGPQVSMDPMKNVTCENG [L13M], the protein stability index is 4.24.
As for HISSCKLGPQVSNDPMKNVTCENG [L13N], the protein stability index came to 4.42.
As to HISSCKLGPQVSQDPMKNVTCENG [L13Q], the protein stability index came to 4.28.
To HISSCKLGPQVSRDPMKNVTCENG [L13R] belongs 3.8; to HISSCKLGPQVSGDPMKNVTCENG [L13G], 4.61.
Then HISSCKLGPQVSEDPMKNVTCENG [L13E], with 4.58; and HISSCKLGPQVSKDPMKNVTCENG [L13K], with 4.15.
On to HISSCKLGPQVSADPMKNVTCENG [L13A], for which the protein stability index was 4.43.
Regarding HISSCKLGPQVSCDPMKNVTCENG [L13C], the protein stability index was 3.68.
To HISSCKLGPQVSTDPMKNVTCENG [L13T] belongs 4.61; to HISSCKLGPQVSHDPMKNVTCENG [L13H], 4.34; to HISSCKLGPQVSWDPMKNVTCENG [L13W], 3.58.
To HISSCKLGPQVSYDPMKNVTCENG [L13Y] belongs 3.5; to HISSCKLGPQVSVDPMKNVTCENG [L13V], 4.06; to HISSCKLGPQVSFDPMKNVTCENG [L13F], 3.52.
On to HISSCKLGPQVSIDPMKNVTCENG [L13I], for which the protein stability index is 4.1.
Then HISSCKLWPQVSLDPMKNVTCENG [G8W], with 1.87; and HISSCKLSPQVSLDPMKNVTCENG [G8S], with 3.66.
To HISSCKLVPQVSLDPMKNVTCENG [G8V] belongs 3.62; to HISSCKLYPQVSLDPMKNVTCENG [G8Y], 3.4.
Then HISSCKLKPQVSLDPMKNVTCENG [G8K], with 3.61; and HISSCKLLPQVSLDPMKNVTCENG [G8L], with 4.02.
With HISSCKLEPQVSLDPMKNVTCENG [G8E], the protein stability index came out at 4.53.
To HISSCKLIPQVSLDPMKNVTCENG [G8I] belongs 3.86; to HISSCKLRPQVSLDPMKNVTCENG [G8R], 3.29.
Regarding HISSCKLCPQVSLDPMKNVTCENG [G8C], the protein stability index was found to be 3.15.
For HISSCKLNPQVSLDPMKNVTCENG [G8N], the protein stability index amounted to 4.07.
For the variant HISSCKLQPQVSLDPMKNVTCENG [G8Q], the protein stability index was 3.7.
As for HISSCKLHPQVSLDPMKNVTCENG [G8H], the protein stability index is 3.63.
Then HISSCKLTPQVSLDPMKNVTCENG [G8T], with 4.45; and HISSCKLPPQVSLDPMKNVTCENG [G8P], with 4.01.
To HISSCKLFPQVSLDPMKNVTCENG [G8F] belongs 3.04; to HISSCKLMPQVSLDPMKNVTCENG [G8M], 3.95; to HISSCKLAPQVSLDPMKNVTCENG [G8A], 3.77.
For the variant HISSCKLDPQVSLDPMKNVTCENG [G8D], the protein stability index was 4.34.
As for HISSCKLGDQVSLDPMKNVTCENG [P9D], the protein stability index is 4.05.
To HISSCKLGNQVSLDPMKNVTCENG [P9N] belongs 3.71.
To HISSCKLGLQVSLDPMKNVTCENG [P9L] belongs 2.84.
As for HISSCKLGTQVSLDPMKNVTCENG [P9T], the protein stability index was found to be 3.95.
As for HISSCKLGEQVSLDPMKNVTCENG [P9E], the protein stability index was 4.36.
For the variant HISSCKLGGQVSLDPMKNVTCENG [P9G], the protein stability index came to 3.51.
As to HISSCKLGCQVSLDPMKNVTCENG [P9C], the protein stability index amounted to 3.23.
Take HISSCKLGMQVSLDPMKNVTCENG [P9M]: the protein stability index came to 2.69.
To HISSCKLGRQVSLDPMKNVTCENG [P9R] belongs 3.76; to HISSCKLGWQVSLDPMKNVTCENG [P9W], 2.2.
Then HISSCKLGVQVSLDPMKNVTCENG [P9V], with 3.23.
Turning to HISSCKLGKQVSLDPMKNVTCENG [P9K], the protein stability index worked out at 4.25.
To HISSCKLGSQVSLDPMKNVTCENG [P9S] belongs 3.05; to HISSCKLGIQVSLDPMKNVTCENG [P9I], 2.63.
For the variant HISSCKLGFQVSLDPMKNVTCENG [P9F], the protein stability index is 2.65.
As to HISSCKLGAQVSLDPMKNVTCENG [P9A], the protein stability index worked out at 3.85.
HISSCKLGQQVSLDPMKNVTCENG [P9Q]: the protein stability index was 3.87.
To HISSCKLGYQVSLDPMKNVTCENG [P9Y] belongs 2.83; to HISSCKLGHQVSLDPMKNVTCENG [P9H], 3.73; to HISSCKLGPQSSLDPMKNVTCENG [V11S], 4.09.
Turning to HISSCKLGPQYSLDPMKNVTCENG [V11Y], the protein stability index is 3.67.
Regarding HISSCKLGPQRSLDPMKNVTCENG [V11R], the protein stability index was 3.94.
To HISSCKLGPQWSLDPMKNVTCENG [V11W] belongs 3.44; to HISSCKLGPQCSLDPMKNVTCENG [V11C], 4.27; to HISSCKLGPQHSLDPMKNVTCENG [V11H], 4.41.
Then HISSCKLGPQPSLDPMKNVTCENG [V11P], with 4.34.
Then HISSCKLGPQTSLDPMKNVTCENG [V11T], with 4.07.
Regarding HISSCKLGPQFSLDPMKNVTCENG [V11F], the protein stability index worked out at 3.56.
Then HISSCKLGPQISLDPMKNVTCENG [V11I], with 3.72; and HISSCKLGPQESLDPMKNVTCENG [V11E], with 4.58.
To HISSCKLGPQASLDPMKNVTCENG [V11A] belongs 4.03.
As for HISSCKLGPQDSLDPMKNVTCENG [V11D], the protein stability index is 4.35.
For HISSCKLGPQNSLDPMKNVTCENG [V11N], the protein stability index came to 4.33.
Regarding HISSCKLGPQLSLDPMKNVTCENG [V11L], the protein stability index was 3.72.
To HISSCKLGPQGSLDPMKNVTCENG [V11G] belongs 3.25.
To HISSCKLGPQKSLDPMKNVTCENG [V11K] belongs 3.48; to HISSCKLGPQMSLDPMKNVTCENG [V11M], 4.15.
Regarding HISSCKLGPQQSLDPMKNVTCENG [V11Q], the protein stability index worked out at 4.4.
Take HISSYKLGPQVSLDPMKNVTCENG [C5Y]: the protein stability index stood at 4.
To HISSEKLGPQVSLDPMKNVTCENG [C5E] belongs 4.95; to HISSIKLGPQVSLDPMKNVTCENG [C5I], 3.87.
To HISSSKLGPQVSLDPMKNVTCENG [C5S] belongs 4.66; to HISSWKLGPQVSLDPMKNVTCENG [C5W], 3; to HISSMKLGPQVSLDPMKNVTCENG [C5M], 4.2.
Then HISSHKLGPQVSLDPMKNVTCENG [C5H], with 4.37; and HISSPKLGPQVSLDPMKNVTCENG [C5P], with 4.01; and HISSGKLGPQVSLDPMKNVTCENG [C5G], with 4.17.
In the case of HISSKKLGPQVSLDPMKNVTCENG [C5K], the protein stability index turned out to be 4.53.
Then HISSTKLGPQVSLDPMKNVTCENG [C5T], with 4.54.
Then HISSDKLGPQVSLDPMKNVTCENG [C5D], with 4.77; and HISSVKLGPQVSLDPMKNVTCENG [C5V], with 4.31; and HISSAKLGPQVSLDPMKNVTCENG [C5A], with 4.39.
Then HISSRKLGPQVSLDPMKNVTCENG [C5R], with 4.1; and HISSFKLGPQVSLDPMKNVTCENG [C5F], with 3.83; and HISSQKLGPQVSLDPMKNVTCENG [C5Q], with 4.49.
In the case of HISSLKLGPQVSLDPMKNVTCENG [C5L], the protein stability index turned out to be 4.32.
For the variant HISSNKLGPQVSLDPMKNVTCENG [C5N], the protein stability index is 3.29.
